This is an account of results in patent US20240228579A1 (Innovent, published 2024).

B1: Fcmut-10 (antibody, human IgG2, kappa)
heavy: QVQLVQSGAEVKKPGSSVKVSCKASGYSFSSYNIHWVRQAPGQGLEWMGYIAPFQGDSRYNQKFKGRVTITADKSTSTAYMELSSLRSEDTAVYYCARLNRGNSLDYWGQGTLVTVSSASTKGPSVFPLAPCSRSTSESTAALGCLVKDYFPEPVTVSWNSGALTSGVHTFPAVLQSSGLYSLSSVVTVPSSNFGTQTYTCNVDHKPSNTKVDKTVERKCCVECPPCPAPPVAGPSVFLFPPKPKDTLMISRTPEVTCVVVDVSHEDPEVQFNWYVDGVEVHNAKTKPREEQFNSTFRVVSVLTVVHQDWLNGKEYKCKVSNKGLAPIEKTISKTKGQPREPQVYTLPPSREEMTKNQVSLTCLVKGFYPSDISVEWESNGQPENNYKTTPPMLDSDGSFFLYSKLTVDKSRWQQGNVFSCSVMHEALHNHYTQKSLSLSPGK
light: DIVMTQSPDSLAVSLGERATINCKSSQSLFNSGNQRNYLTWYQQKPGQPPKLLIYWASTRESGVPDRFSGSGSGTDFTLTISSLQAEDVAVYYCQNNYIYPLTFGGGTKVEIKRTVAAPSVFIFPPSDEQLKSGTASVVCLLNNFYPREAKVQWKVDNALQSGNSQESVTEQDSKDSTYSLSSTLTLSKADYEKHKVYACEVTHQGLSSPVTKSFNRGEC
notes: IgG2-mut: deletion of 329 (EU index); anti-claudin18.2 variable regions of Fcmut-01
B2: Fcmut-11 (antibody, human IgG2, kappa)
heavy: B1 heavy with A326G
light: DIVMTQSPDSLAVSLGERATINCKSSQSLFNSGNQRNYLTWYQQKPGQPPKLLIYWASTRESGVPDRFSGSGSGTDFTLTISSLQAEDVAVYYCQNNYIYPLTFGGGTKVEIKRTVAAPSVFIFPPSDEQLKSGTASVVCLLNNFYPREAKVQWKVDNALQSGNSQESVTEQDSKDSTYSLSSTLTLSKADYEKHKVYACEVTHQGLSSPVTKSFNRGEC
notes: IgG2-mut: deletion of 329, G at 330 (EU index)
B3: Fcmut-15 (antibody, human IgG2, kappa)
heavy: B1 heavy with V232A, A326G
light: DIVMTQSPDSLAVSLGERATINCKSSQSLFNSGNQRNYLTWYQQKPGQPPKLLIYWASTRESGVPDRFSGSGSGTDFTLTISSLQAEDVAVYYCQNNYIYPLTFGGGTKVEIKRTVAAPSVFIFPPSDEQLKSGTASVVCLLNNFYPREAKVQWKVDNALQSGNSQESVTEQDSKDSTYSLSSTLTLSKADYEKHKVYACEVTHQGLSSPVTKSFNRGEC
notes: IgG2-mut: A at 234, deletion of 329, G at 330 (EU index)
B4: Fcmut-14 (antibody, human IgG2, kappa)
heavy: B1 heavy with V232A
light: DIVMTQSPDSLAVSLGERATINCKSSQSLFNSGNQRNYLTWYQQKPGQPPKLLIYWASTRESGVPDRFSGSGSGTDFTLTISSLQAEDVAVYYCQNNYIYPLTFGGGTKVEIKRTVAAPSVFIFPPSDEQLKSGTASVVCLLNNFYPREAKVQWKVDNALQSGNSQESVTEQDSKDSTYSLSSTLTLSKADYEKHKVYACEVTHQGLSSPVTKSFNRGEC
notes: IgG2-mut: A at 234, deletion of 329 (EU index)
B5: Fcmut-13 (antibody, human IgG2, kappa)
heavy: QVQLVQSGAEVKKPGSSVKVSCKASGYSFSSYNIHWVRQAPGQGLEWMGYIAPFQGDSRYNQKFKGRVTITADKSTSTAYMELSSLRSEDTAVYYCARLNRGNSLDYWGQGTLVTVSSASTKGPSVFPLAPCSRSTSESTAALGCLVKDYFPEPVTVSWNSGALTSGVHTFPAVLQSSGLYSLSSVVTVPSSNFGTQTYTCNVDHKPSNTKVDKTVERKCCVECPPCPAPPAAGPSVFLFPPKPKDTLMISRTPEVTCVVVDVSHEDPEVQFNWYVDGVEVHNAKTKPREEQFNSTFRVVSVLTVVHQDWLNGKEYKCKVSNKGLPAPIEKTISKTKGQPREPQVYTLPPSREEMTKNQVSLTCLVKGFYPSDISVEWESNGQPENNYKTTPPMLDSDGSFFLYSKLTVDKSRWQQGNVFSCSVMHEALHNHYTQKSLSLSPGK
light: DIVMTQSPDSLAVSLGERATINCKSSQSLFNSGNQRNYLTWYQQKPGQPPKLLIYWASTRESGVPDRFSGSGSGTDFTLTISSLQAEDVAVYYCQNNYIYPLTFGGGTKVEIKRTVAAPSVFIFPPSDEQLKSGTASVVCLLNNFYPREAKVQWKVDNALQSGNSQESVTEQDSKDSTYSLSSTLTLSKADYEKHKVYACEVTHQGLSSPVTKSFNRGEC
notes: IgG2-mut: A at 234 (EU index)
B6: Fcmut-20 (antibody, human IgG4 S228P, kappa)
heavy: QVQLVQSGAEVKKPGSSVKVSCKASGYSFSSYNIHWVRQAPGQGLEWMGYIAPFQGDSRYNQKFKGRVTITADKSTSTAYMELSSLRSEDTAVYYCARLNRGNSLDYWGQGTLVTVSSASTKGPSVFPLAPCSRSTSESTAALGCLVKDYFPEPVTVSWNSGALTSGVHTFPAVLQSSGLYSLSSVVTVPSSSLGTKTYTCNVDHKPSNTKVDKRVESKYGPPCPPCPAPEFLGGPSVFLFPPKPKDTLMISRTPEVTCVVVDVSQEDPEVQFNWYVDGVEVHNAKTKPREEQFNSTYRVVSVLTVLHQDWLNGKEYKCKVSNKGLSIEKTISKAKGQPREPQVYTLPPSQEEMTKNQVSLTCLVKGFYPSDIAVEWESNGQPENNYKTTPPVLDSDGSFFLYSRLTVDKSRWQEGNVFSCSVMHEALHNHYTQKSLSLSLGK
light: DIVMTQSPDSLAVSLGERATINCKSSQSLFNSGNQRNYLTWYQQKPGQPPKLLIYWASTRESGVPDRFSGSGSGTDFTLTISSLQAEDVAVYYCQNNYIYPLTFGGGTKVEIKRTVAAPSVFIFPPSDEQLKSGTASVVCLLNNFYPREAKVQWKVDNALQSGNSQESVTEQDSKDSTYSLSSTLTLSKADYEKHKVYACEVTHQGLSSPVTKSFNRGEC
notes: IgG4-mut: deletion of 329 and 330 (EU index)
B7: Fcmut-24 (antibody, human IgG4 S228P, kappa, F234A L235A)
heavy: B6 heavy with F232A, L233A
light: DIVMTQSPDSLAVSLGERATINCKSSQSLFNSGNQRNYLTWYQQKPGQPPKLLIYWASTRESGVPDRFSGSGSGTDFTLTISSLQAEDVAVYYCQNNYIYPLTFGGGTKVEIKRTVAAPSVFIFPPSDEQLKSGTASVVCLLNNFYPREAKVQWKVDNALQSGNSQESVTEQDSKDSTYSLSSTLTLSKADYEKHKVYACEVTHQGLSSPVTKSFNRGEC
notes: also called Fcmut-024
B8: Fcmut-18 (antibody, human IgG4 S228P, kappa)
heavy: QVQLVQSGAEVKKPGSSVKVSCKASGYSFSSYNIHWVRQAPGQGLEWMGYIAPFQGDSRYNQKFKGRVTITADKSTSTAYMELSSLRSEDTAVYYCARLNRGNSLDYWGQGTLVTVSSASTKGPSVFPLAPCSRSTSESTAALGCLVKDYFPEPVTVSWNSGALTSGVHTFPAVLQSSGLYSLSSVVTVPSSSLGTKTYTCNVDHKPSNTKVDKRVESKYGPPCPPCPAPEFLGGPSVFLFPPKPKDTLMISRTPEVTCVVVDVSQEDPEVQFNWYVDGVEVHNAKTKPREEQFNSTYRVVSVLTVLHQDWLNGKEYKCKVSNKGLSSIEKTISKAKGQPREPQVYTLPPSQEEMTKNQVSLTCLVKGFYPSDIAVEWESNGQPENNYKTTPPVLDSDGSFFLYSRLTVDKSRWQEGNVFSCSVMHEALHNHYTQKSLSLSLGK
light: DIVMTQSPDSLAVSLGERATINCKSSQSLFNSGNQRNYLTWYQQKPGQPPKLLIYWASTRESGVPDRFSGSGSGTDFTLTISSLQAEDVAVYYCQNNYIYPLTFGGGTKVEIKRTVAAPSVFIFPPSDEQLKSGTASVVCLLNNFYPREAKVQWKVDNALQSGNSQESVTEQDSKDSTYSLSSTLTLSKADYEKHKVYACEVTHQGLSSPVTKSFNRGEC
notes: IgG4-mut: deletion of 329 (EU index)
B9: Fcmut-22 (antibody, human IgG4 S228P, kappa, F234A L235A)
heavy: B8 heavy with F232A, L233A
light: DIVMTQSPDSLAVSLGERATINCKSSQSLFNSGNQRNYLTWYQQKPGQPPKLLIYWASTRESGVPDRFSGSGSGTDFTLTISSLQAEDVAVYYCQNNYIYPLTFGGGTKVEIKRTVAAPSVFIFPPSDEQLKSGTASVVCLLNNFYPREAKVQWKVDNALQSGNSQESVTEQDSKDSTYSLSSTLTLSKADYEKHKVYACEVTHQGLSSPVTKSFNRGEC
B10: Fcmut-23 (antibody, human IgG4 S228P, kappa, F234A L235A)
heavy: B8 heavy with F232A, L233A, S327G
light: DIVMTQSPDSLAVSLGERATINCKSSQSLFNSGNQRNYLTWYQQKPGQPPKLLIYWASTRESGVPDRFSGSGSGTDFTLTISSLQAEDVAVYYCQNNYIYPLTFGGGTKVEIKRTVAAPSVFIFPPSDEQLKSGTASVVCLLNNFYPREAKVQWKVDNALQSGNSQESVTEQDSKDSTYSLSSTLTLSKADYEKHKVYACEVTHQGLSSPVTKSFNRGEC
B11: Fcmut-19 (antibody, human IgG4 S228P, kappa)
heavy: B8 heavy with S327G
light: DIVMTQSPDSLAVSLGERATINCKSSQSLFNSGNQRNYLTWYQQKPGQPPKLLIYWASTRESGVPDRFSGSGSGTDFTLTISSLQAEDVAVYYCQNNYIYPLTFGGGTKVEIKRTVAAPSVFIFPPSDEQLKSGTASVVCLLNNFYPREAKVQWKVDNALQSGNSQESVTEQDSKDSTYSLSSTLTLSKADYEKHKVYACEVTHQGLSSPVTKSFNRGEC
notes: IgG4-mut: deletion of 329, G at 330 (EU index)
B12: Fcmut-12 (antibody, human IgG2, kappa)
heavy: QVQLVQSGAEVKKPGSSVKVSCKASGYSFSSYNIHWVRQAPGQGLEWMGYIAPFQGDSRYNQKFKGRVTITADKSTSTAYMELSSLRSEDTAVYYCARLNRGNSLDYWGQGTLVTVSSASTKGPSVFPLAPCSRSTSESTAALGCLVKDYFPEPVTVSWNSGALTSGVHTFPAVLQSSGLYSLSSVVTVPSSNFGTQTYTCNVDHKPSNTKVDKTVERKCCVECPPCPAPPVAGPSVFLFPPKPKDTLMISRTPEVTCVVVDVSHEDPEVQFNWYVDGVEVHNAKTKPREEQFNSTFRVVSVLTVVHQDWLNGKEYKCKVSNKGLPIEKTISKTKGQPREPQVYTLPPSREEMTKNQVSLTCLVKGFYPSDISVEWESNGQPENNYKTTPPMLDSDGSFFLYSKLTVDKSRWQQGNVFSCSVMHEALHNHYTQKSLSLSPGK
light: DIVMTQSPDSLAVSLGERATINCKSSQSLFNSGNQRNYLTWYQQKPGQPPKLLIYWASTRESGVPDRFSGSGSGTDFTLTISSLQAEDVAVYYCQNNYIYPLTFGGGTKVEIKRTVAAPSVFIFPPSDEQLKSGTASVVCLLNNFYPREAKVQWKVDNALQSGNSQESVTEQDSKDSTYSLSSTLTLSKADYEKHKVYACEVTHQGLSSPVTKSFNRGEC
notes: IgG2-mut: deletion of 329 and 330 (EU index)
B13: Fcmut-16 (antibody, human IgG2, kappa)
heavy: B12 heavy with V232A
light: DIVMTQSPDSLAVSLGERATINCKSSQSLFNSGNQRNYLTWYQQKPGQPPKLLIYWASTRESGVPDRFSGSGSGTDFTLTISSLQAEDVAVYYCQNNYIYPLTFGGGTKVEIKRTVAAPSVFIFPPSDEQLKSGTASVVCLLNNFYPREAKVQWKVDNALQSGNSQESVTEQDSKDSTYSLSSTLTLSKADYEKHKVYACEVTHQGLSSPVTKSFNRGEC
notes: IgG2-mut: A at 234, deletion of 329 and 330 (EU index)

Numbering of substitutions follows the chain as printed.

For the test, the target named is T1, human C1q (human, UniProt P02745 23-245; P02746 28-253; P02747 29-245).
T1 construct: Bought C1q (Complement Technology); also called C1q antigen
T1 sequence (P02745 23-245 limits assumed, chain 1 of 3): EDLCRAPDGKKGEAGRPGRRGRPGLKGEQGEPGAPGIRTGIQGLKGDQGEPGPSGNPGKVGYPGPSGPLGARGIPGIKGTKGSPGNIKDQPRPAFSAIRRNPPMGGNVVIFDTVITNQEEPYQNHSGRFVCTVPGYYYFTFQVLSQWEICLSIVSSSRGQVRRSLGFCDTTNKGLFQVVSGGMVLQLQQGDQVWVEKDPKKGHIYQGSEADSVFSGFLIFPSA
T1 sequence (P02746 28-253 limits assumed, chain 2 of 3): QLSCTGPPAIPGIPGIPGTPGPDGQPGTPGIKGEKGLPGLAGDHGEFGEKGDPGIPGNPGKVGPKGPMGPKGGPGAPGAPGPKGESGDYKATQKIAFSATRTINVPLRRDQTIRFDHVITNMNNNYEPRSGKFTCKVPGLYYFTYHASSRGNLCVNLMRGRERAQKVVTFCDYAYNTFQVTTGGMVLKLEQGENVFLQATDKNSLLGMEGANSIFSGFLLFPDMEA
T1 sequence (P02747 29-245 limits assumed, chain 3 of 3): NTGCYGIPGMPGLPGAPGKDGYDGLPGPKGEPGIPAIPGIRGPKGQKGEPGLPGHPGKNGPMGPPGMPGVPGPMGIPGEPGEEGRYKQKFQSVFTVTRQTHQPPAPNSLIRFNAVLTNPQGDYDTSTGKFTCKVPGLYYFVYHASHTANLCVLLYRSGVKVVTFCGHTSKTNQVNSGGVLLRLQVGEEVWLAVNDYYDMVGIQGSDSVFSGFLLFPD
The experiment in a line: BLI (Octet), biotinylated antibody on SA sensor. In general terms: BLI is a label-free optical method that tracks binding on a fibre tip over time.
Method: The antibody was diluted to approximately 100 nM, and C1q (Δ099, Complement Technology) was diluted to 40 nM.
Detection was conducted using Fortebio Octet Red96e, and the sensors were arranged according to the positions of the samples. […] After the experiment was completed, KD values were analyzed using ForteBio Octet analysis software, the coordinate axis data were derived, and Graphpad Prism 8 software was used for plotting.
With B1, the binding result is “no binding (tested: C1q 40 nM)”.

In the case of B2, the binding result is “no binding (tested: C1q 40 nM)”.

Turning to B3, the binding result is reported as “no binding (tested: C1q 40 nM)”.

On to B4, for which the binding result is reported as “no binding (tested: C1q 40 nM)”.

Regarding B5, the binding result is “no binding (tested: C1q 40 nM)”.

For B6, the binding result is “no binding (tested: C1q 40 nM)”.

With B7, the binding result is on record as “no binding (tested: C1q 40 nM)”.

As to B8, the binding result is “no binding (tested: C1q 40 nM)”.

For the molecule B9, the binding result was “no binding (tested: C1q 40 nM)”.

In the case of B10, the binding result was “no binding (tested: C1q 40 nM)”.

With B11, the binding result was “no binding (tested: C1q 40 nM)”.

B12: the binding result is on record as “no binding (tested: C1q 40 nM)”.

As for B13, the binding result is recorded as “no binding (tested: C1q 40 nM)”.
